# According to article PMC11800091 (iScience, 2025):
# Legend:
# [1] = molecular target: human immunodeficiency virus type 1 JR-CSF Fc-gp120 protein (HIV-1 JR-CSF) (UniProt P20871); experiment: BLI
# [2] = molecular target: human immunodeficiency virus type 1 JR-CSF Fc-gp120 protein (HIV-1 JR-CSF, UniProt P20871); experiment: BLI
Kd [1],Kd [2],Molecule
1.92 nM,–,LPETG sortag-J3 nanobody (VHH)
–,3.33 nM,3E3 nanobody (VHH) VHH: EVQLVESGGGLVQPGGSLRLSCAASQFTLESYAIGWFRQAPGKDSEGVACISSSTYYADSVKGRFTISRDNAKNTVYLQMESLKPEDTAVYHCATSGAGSYCTLRAFGSWGQGTQVTVSS
–,2.51 nM,LPETG sortag-3E3 nanobody (VHH) VHH: EVQLVESGGGLVQPGGSLRLSCAASQFTLESYAIGWFRQAPGKDSEGVACISSSTYYADSVKGRFTISRDNAKNTVYLQMESLKPEDTAVYHCATSGAGSYCTLRAFGSWGQGTQVTVSS
